Measurements published in patent publication US20100048604A1, “Ligands for Aldoketoreductases” (priority 2004, published 2010).

Columns and labels:
Assay in all cases: Steady state kinetic parameters of fluorogenic substrates with purified AKR1C isozymes
Format in all cases: biochemical, human
Conditions in all cases: other: isozyme 1C2, potassium phosphate buffer pH 6, NADPH, fluorimetric
[1] = substrate: CC(=O)c1cc(=O)oc2cc3c(cc12)CCCN3
Description: (§1) AKR1C2 and AKR1C3 Selective Probes: Probes (5a-5i) were examined as substrates for the four purified human HSD isozymes (AKR1C1-AKR1C4) under standard assay conditions [catalytic quantities of enzyme, an excess of cofactor (NADPH)]. The initial reaction rates were used to derive standard kinetic parameters (kcat and Km, Materials and Methods).
(§2) Substrate tolerance of AKR1Cs: Isozyme Activity with 5a-5i: Activity of the second generation of fluorogenic substrates with the AKR1C isozymes was determined as follows. To a STARNA semi-micro fluorimeter cell (with 4 polished windows) was added 100 μL of 1 M potassium phosphate buffer (pH 6), 840 μL doubly deionized water, and 20 μL of 12.5 mM NADPH. After mixing the aqueous components thoroughly, 20 μL of acetonitrile was added as a cosolvent and mixed well. 20 μL of 2.5 mM second generation fluorogenic ketone in acetonitrile (5a-5i) was then added and mixed. 4 μL of undiluted AKR1C (provided generously by the Penning lab at concentrations of 2.5 mg/mL) were then added to the cuvette for a total of 10 μg purified enzyme in the 1 mL assay volume. Fluorescence arising from the respective alcohol reduction product was then monitored over the course of 5-10 minutes.
(§3) Binding constant and catalytic rates (Km and kcat) of the second generation of fluorogenic substrates was determined as follows. To a STARNA semi-micro fluorometer cell (with 4 polished windows) was added 100 μL of 1 M potassium phosphate buffer (pH 6), 840 μL doubly deionized water, and 20 AL of 12.5 mM NADPH. After mixing the aqueous components thoroughly, 20 μL of acetonitrile was added as a cosolvent and mixed well. 20 μL of the second generation fluorogenic ketone (5a-5i) was then added and mixed to achieve assay concentrations of 5Km to Km/5. To initiate the reduction, 2 or 4 μL of diluted AKR1C (1:2 to 1:100, depending on the kinetics of a particular isozyme's reduction of a substrate) was then added to the cuvette. Fluorescence arising from the respective alcohol reduction product was then monitored over the course of 3 minutes (Excitation and emission band pass slits both at 4 nm, lamp 700 V, λexc 410 nm, λem 510). The rate of product formation, expressed in units of nanomoles per minute, were calculated according to previously published procedures (Wierzchowski, J.; Dafeldecker, W. P.; Holmquist, B.; Vallee, B. L. Anal. Biochem. 1989, 178, 57-62):
(§4) initial rate=[nst×(Ft−F0)/(Fst)]/t (1)
(§5) where Ft and F0 represent the fluorescence at times t and 0 minutes, nst is the nanomoles of product in a known concentration of product, and Fst is the fluorescence resulting from nst of product. Kinetic parameters were approximated by GraFit (Erithacus Software, Surrey, UK) nonlinear regression analysis program to fit the untransformed data to a hyperbolic function as originally described (Wierzchowski, J.; Dafeldecker, W. P.; Holmquist, B.; Vallee, B. L. Anal. Biochem. 1989, 178, 57-62). Reported enzymatic kinetic parameters are the average of three independent determinations from three different preparations of substrate and enzyme.

[2] = substrate: CC(=O)c1cc(=O)oc2c3c(ccc12)NCCC3
Description: as §1, §2, §3, §4, §5

[3] = substrate: CC(=O)c1cc(=O)oc2cc(N(C)C)ccc12
Description: as §1, §2, §3, §4, §5

[4] = substrate: O=C(c1ccccc1)c1cc(=O)oc2c3c4c(cc12)CCCN4CCC3
Description: as §1, §2, §3, §4, §5

[5] = substrate: O=C1CCc2c1c1cc3c4c(c1oc2=O)CCCN4CCC3
Description: as §1, §2, §3, §4, §5

[6] = substrate: CC(=O)c1cc(=O)oc2c3c4c(cc12)CCCN4CCC3
Description: as §1, §2, §3, §4, §5

B1: AKR1C2 (Homo sapiens) (protein)
chain: MDSKYQCVKLNDGHFMPVLGFGTYAPAEVPKSKALEAVKLAIEAGFHHIDSAHVYNNEEQVGLAIRSKIADGSVKREDIFYTSKLWSNSHRPELVRPALERSLKNLQLDYVDLYLIHFPVSVKPGEEVIPKDENGKILFDTVDLCATWEAMEKCKDAGLAKSIGVSNFNHRLLEMILNKPGLKYKPVCNQVECHPYFNQRKLLDFCKSKDIVLVAYSALGSHREEPWVDPNSPVLLEDPVLCALAKKHKRTPALIALRYQLQRGVVVLAKSYNEQRIRQNVQVFEFQLTSEEMKAIDGLNRNVRYLTLDIFAGPPNYPFSDEY
notes: gift of the Penning lab (University of Pennsylvania School of Medicine)
Km [1]: 43.3 ± 4.4 4.3 ± 0.2 μM
Km [2]: 4.8 µM
Km [3]: 7.2 µM
Km [4]: 3 µM
Km [5]: 4.5 µM
kcat [5]: 1.6 0.40 7.2 no activity
kcat/Km [5]: 0.39 0.08 56 min^−1 μM^−1
Km [6]: 7.3 µM
